In patent US10253078 (ZEALAND PHARMA A S, dated 2019):
Starred links: 1 amine or outer side, 2 acyl side, 3 side chain; linkers in the order of their positions; H or OH if unused. Non-standard residues stand in square brackets, D forms with d. Groups on a side chain read outwards from the residue. *: point of attachment. C20 diacid = O=C(O)CCCCCCCCCCCCCCCCCCC(=O)*; γGlu = O=C(O)[C@H](CCC(=O)[*:2])N[*:1]; Palmitoyl = CCCCCCCCCCCCCCCC(=O)*; Aib = CC(C)(N)C(=O)O

B1: Compound 6 (peptide)
peptide: H-Y[Aib]EGTFISDYSIELDKIHQQDFVNWLLAQK([γGlu-Palmitoyl])-NH2
SMILES: CCCCCCCCCCCCCCCC(=O)N[C@@H](CCC(=O)NCCCC[C@H](NC(=O)[C@H](CCC(N)=O)NC(=O)[C@H](C)NC(=O)[C@H](CC(C)C)NC(=O)[C@H](CC(C)C)NC(=O)[C@H](Cc1c[nH]c2ccccc12)NC(=O)[C@H](CC(N)=O)NC(=O)[C@@H](NC(=O)[C@H](Cc1ccccc1)NC(=O)[C@H](CC(=O)O)NC(=O)[C@H](CCC(N)=O)NC(=O)[C@H](CCC(N)=O)NC(=O)[C@H](Cc1c[nH]cn1)NC(=O)[C@@H](NC(=O)[C@H](CCCCN)NC(=O)[C@H](CC(=O)O)NC(=O)[C@H](CC(C)C)NC(=O)[C@H](CCC(=O)O)NC(=O)[C@@H](NC(=O)[C@H](CO)NC(=O)[C@H](Cc1ccc(O)cc1)NC(=O)[C@H](CC(=O)O)NC(=O)[C@H](CO)NC(=O)[C@@H](NC(=O)[C@H](Cc1ccccc1)NC(=O)[C@@H](NC(=O)CNC(=O)[C@H](CCC(=O)O)NC(=O)C(C)(C)NC(=O)[C@@H](N)Cc1ccc(O)cc1)[C@@H](C)O)[C@@H](C)CC)[C@@H](C)CC)[C@@H](C)CC)C(C)C)C(N)=O)C(=O)O
B2: Compound 2 (peptide)
peptide: H-Y[Aib]EGTFISDYSIELDK([γGlu-Palmitoyl])IHQQDFVNWLLAQGPSSGAPPPS-NH2
SMILES: CCCCCCCCCCCCCCCC(=O)N[C@@H](CCC(=O)NCCCC[C@H](NC(=O)[C@H](CC(=O)O)NC(=O)[C@H](CC(C)C)NC(=O)[C@H](CCC(=O)O)NC(=O)[C@@H](NC(=O)[C@H](CO)NC(=O)[C@H](Cc1ccc(O)cc1)NC(=O)[C@H](CC(=O)O)NC(=O)[C@H](CO)NC(=O)[C@@H](NC(=O)[C@H](Cc1ccccc1)NC(=O)[C@@H](NC(=O)CNC(=O)[C@H](CCC(=O)O)NC(=O)C(C)(C)NC(=O)[C@@H](N)Cc1ccc(O)cc1)[C@@H](C)O)[C@@H](C)CC)[C@@H](C)CC)C(=O)N[C@H](C(=O)N[C@@H](Cc1c[nH]cn1)C(=O)N[C@@H](CCC(N)=O)C(=O)N[C@@H](CCC(N)=O)C(=O)N[C@@H](CC(=O)O)C(=O)N[C@@H](Cc1ccccc1)C(=O)N[C@H](C(=O)N[C@@H](CC(N)=O)C(=O)N[C@@H](Cc1c[nH]c2ccccc12)C(=O)N[C@@H](CC(C)C)C(=O)N[C@@H](CC(C)C)C(=O)N[C@@H](C)C(=O)N[C@@H](CCC(N)=O)C(=O)NCC(=O)N1CCC[C@H]1C(=O)N[C@@H](CO)C(=O)N[C@@H](CO)C(=O)NCC(=O)N[C@@H](C)C(=O)N1CCC[C@H]1C(=O)N1CCC[C@H]1C(=O)N1CCC[C@H]1C(=O)N[C@@H](CO)C(N)=O)C(C)C)[C@@H](C)CC)C(=O)O
B3: Compound 5 (peptide)
peptide: H-Y[Aib]EGTFISDYSIELDKIHQQDFVNWLLAQGPSSGAPPPSK([γGlu-Palmitoyl])-NH2
SMILES: CCCCCCCCCCCCCCCC(=O)N[C@@H](CCC(=O)NCCCC[C@H](NC(=O)[C@H](CO)NC(=O)[C@@H]1CCCN1C(=O)[C@@H]1CCCN1C(=O)[C@@H]1CCCN1C(=O)[C@H](C)NC(=O)CNC(=O)[C@H](CO)NC(=O)[C@H](CO)NC(=O)[C@@H]1CCCN1C(=O)CNC(=O)[C@H](CCC(N)=O)NC(=O)[C@H](C)NC(=O)[C@H](CC(C)C)NC(=O)[C@H](CC(C)C)NC(=O)[C@H](Cc1c[nH]c2ccccc12)NC(=O)[C@H](CC(N)=O)NC(=O)[C@@H](NC(=O)[C@H](Cc1ccccc1)NC(=O)[C@H](CC(=O)O)NC(=O)[C@H](CCC(N)=O)NC(=O)[C@H](CCC(N)=O)NC(=O)[C@H](Cc1c[nH]cn1)NC(=O)[C@@H](NC(=O)[C@H](CCCCN)NC(=O)[C@H](CC(=O)O)NC(=O)[C@H](CC(C)C)NC(=O)[C@H](CCC(=O)O)NC(=O)[C@@H](NC(=O)[C@H](CO)NC(=O)[C@H](Cc1ccc(O)cc1)NC(=O)[C@H](CC(=O)O)NC(=O)[C@H](CO)NC(=O)[C@@H](NC(=O)[C@H](Cc1ccccc1)NC(=O)[C@@H](NC(=O)CNC(=O)[C@H](CCC(=O)O)NC(=O)C(C)(C)NC(=O)[C@@H](N)Cc1ccc(O)cc1)[C@@H](C)O)[C@@H](C)CC)[C@@H](C)CC)[C@@H](C)CC)C(C)C)C(N)=O)C(=O)O
B4: Compound 19 (peptide)
peptide: YAEGTFISDYSIELDKKAQRAFIEWLLAQGPSSGAPPPS
modifications: Aib at 2; Lys 17 side chain acylated: K((19-Carboxy-nonadecanoyl)-[(Piperazine-1-yl)-acetyl]-Peg3-Peg3); C-terminal amide (-NH2)
B5: Compound 3 (peptide)
peptide: H-Y[Aib]EGTFISDYSIELEKK([γGlu-Palmitoyl])HQQDFVNWLLAQGPSSGAPPPS-NH2
SMILES: CCCCCCCCCCCCCCCC(=O)N[C@@H](CCC(=O)NCCCC[C@H](NC(=O)[C@H](CCCCN)NC(=O)[C@H](CCC(=O)O)NC(=O)[C@H](CC(C)C)NC(=O)[C@H](CCC(=O)O)NC(=O)[C@@H](NC(=O)[C@H](CO)NC(=O)[C@H](Cc1ccc(O)cc1)NC(=O)[C@H](CC(=O)O)NC(=O)[C@H](CO)NC(=O)[C@@H](NC(=O)[C@H](Cc1ccccc1)NC(=O)[C@@H](NC(=O)CNC(=O)[C@H](CCC(=O)O)NC(=O)C(C)(C)NC(=O)[C@@H](N)Cc1ccc(O)cc1)[C@@H](C)O)[C@@H](C)CC)[C@@H](C)CC)C(=O)N[C@@H](Cc1c[nH]cn1)C(=O)N[C@@H](CCC(N)=O)C(=O)N[C@@H](CCC(N)=O)C(=O)N[C@@H](CC(=O)O)C(=O)N[C@@H](Cc1ccccc1)C(=O)N[C@H](C(=O)N[C@@H](CC(N)=O)C(=O)N[C@@H](Cc1c[nH]c2ccccc12)C(=O)N[C@@H](CC(C)C)C(=O)N[C@@H](CC(C)C)C(=O)N[C@@H](C)C(=O)N[C@@H](CCC(N)=O)C(=O)NCC(=O)N1CCC[C@H]1C(=O)N[C@@H](CO)C(=O)N[C@@H](CO)C(=O)NCC(=O)N[C@@H](C)C(=O)N1CCC[C@H]1C(=O)N1CCC[C@H]1C(=O)N1CCC[C@H]1C(=O)N[C@@H](CO)C(N)=O)C(C)C)C(=O)O
B6: Compound 7 (peptide)
peptide: H-Y[Aib]EGTFISDYSIELDKIHQQDFVNWLLAQKGK([γGlu-Palmitoyl])-NH2
SMILES: CCCCCCCCCCCCCCCC(=O)N[C@@H](CCC(=O)NCCCC[C@H](NC(=O)CNC(=O)[C@H](CCCCN)NC(=O)[C@H](CCC(N)=O)NC(=O)[C@H](C)NC(=O)[C@H](CC(C)C)NC(=O)[C@H](CC(C)C)NC(=O)[C@H](Cc1c[nH]c2ccccc12)NC(=O)[C@H](CC(N)=O)NC(=O)[C@@H](NC(=O)[C@H](Cc1ccccc1)NC(=O)[C@H](CC(=O)O)NC(=O)[C@H](CCC(N)=O)NC(=O)[C@H](CCC(N)=O)NC(=O)[C@H](Cc1c[nH]cn1)NC(=O)[C@@H](NC(=O)[C@H](CCCCN)NC(=O)[C@H](CC(=O)O)NC(=O)[C@H](CC(C)C)NC(=O)[C@H](CCC(=O)O)NC(=O)[C@@H](NC(=O)[C@H](CO)NC(=O)[C@H](Cc1ccc(O)cc1)NC(=O)[C@H](CC(=O)O)NC(=O)[C@H](CO)NC(=O)[C@@H](NC(=O)[C@H](Cc1ccccc1)NC(=O)[C@@H](NC(=O)CNC(=O)[C@H](CCC(=O)O)NC(=O)C(C)(C)NC(=O)[C@@H](N)Cc1ccc(O)cc1)[C@@H](C)O)[C@@H](C)CC)[C@@H](C)CC)[C@@H](C)CC)C(C)C)C(N)=O)C(=O)O
B7: Compound 1 (peptide)
peptide: H-Y[Aib]EGTFISDYSIELDKK([γGlu-Palmitoyl])HQQDFVNWLLAQGPSSGAPPPS-NH2
SMILES: CCCCCCCCCCCCCCCC(=O)N[C@@H](CCC(=O)NCCCC[C@H](NC(=O)[C@H](CCCCN)NC(=O)[C@H](CC(=O)O)NC(=O)[C@H](CC(C)C)NC(=O)[C@H](CCC(=O)O)NC(=O)[C@@H](NC(=O)[C@H](CO)NC(=O)[C@H](Cc1ccc(O)cc1)NC(=O)[C@H](CC(=O)O)NC(=O)[C@H](CO)NC(=O)[C@@H](NC(=O)[C@H](Cc1ccccc1)NC(=O)[C@@H](NC(=O)CNC(=O)[C@H](CCC(=O)O)NC(=O)C(C)(C)NC(=O)[C@@H](N)Cc1ccc(O)cc1)[C@@H](C)O)[C@@H](C)CC)[C@@H](C)CC)C(=O)N[C@@H](Cc1c[nH]cn1)C(=O)N[C@@H](CCC(N)=O)C(=O)N[C@@H](CCC(N)=O)C(=O)N[C@@H](CC(=O)O)C(=O)N[C@@H](Cc1ccccc1)C(=O)N[C@H](C(=O)N[C@@H](CC(N)=O)C(=O)N[C@@H](Cc1c[nH]c2ccccc12)C(=O)N[C@@H](CC(C)C)C(=O)N[C@@H](CC(C)C)C(=O)N[C@@H](C)C(=O)N[C@@H](CCC(N)=O)C(=O)NCC(=O)N1CCC[C@H]1C(=O)N[C@@H](CO)C(=O)N[C@@H](CO)C(=O)NCC(=O)N[C@@H](C)C(=O)N1CCC[C@H]1C(=O)N1CCC[C@H]1C(=O)N1CCC[C@H]1C(=O)N[C@@H](CO)C(N)=O)C(C)C)C(=O)O

Molecular target: T1, human GIP receptor (human, UniProt P48546 22-466)
T1 sequence (looked up): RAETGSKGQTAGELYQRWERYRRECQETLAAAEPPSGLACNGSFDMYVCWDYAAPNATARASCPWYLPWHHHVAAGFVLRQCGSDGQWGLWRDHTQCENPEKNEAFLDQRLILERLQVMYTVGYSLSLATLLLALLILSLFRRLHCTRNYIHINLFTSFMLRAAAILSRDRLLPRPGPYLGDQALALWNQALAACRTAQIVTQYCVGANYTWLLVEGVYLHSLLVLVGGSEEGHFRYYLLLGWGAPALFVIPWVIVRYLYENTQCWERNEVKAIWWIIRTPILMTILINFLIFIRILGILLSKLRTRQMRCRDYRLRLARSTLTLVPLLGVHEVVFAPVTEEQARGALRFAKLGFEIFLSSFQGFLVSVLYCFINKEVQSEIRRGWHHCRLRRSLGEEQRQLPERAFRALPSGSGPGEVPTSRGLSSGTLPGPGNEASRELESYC
Assay: cell-based or functional assay

Binder	EC50, hGIP-R level of cAMP (HEK293 cells expressing human GIP R)
H-Y[Aib]EGTFISDYSIELDKK([Peg3-Peg3-γGlu-C20 diacid])HQQDFVNWLLAQGPSSGAPPPS-NH2 [Compound 9]	0.008 nM
B1	0.032 nM
B2	0.013 nM
B3	0.014 nM
B4	0.006 nM
B5	0.014 nM
B6	0.018 nM
H-Y[Aib]EGTFISDYSIELDKIHQQDFVNWLLAQGPSSGAPPPSK([Peg3-Peg3-γGlu-C20 diacid])-NH2 [Compound 4]	0.013 nM
B7	0.008 nM

Molecular target: T1, human GIP receptor
Assay: cell-based or functional assay
Remark: another data set of the same source

Binder	EC50 hGIP R (cAMP, HEK293 cells expressing the GIP R)
H-Y[Aib]EGTFISDYSIELDKK([Peg3-Peg3-γGlu-C20 diacid])HQQDFVNWLLAQGPSSGAPPPS-NH2 [Compound 9]	0.009 nM
B1	0.014 nM
B2	0.008 nM
B3	0.014 nM
B4	0.005 nM
B5	0.014 nM
B6	0.032 nM
H-Y[Aib]EGTFISDYSIELDKIHQQDFVNWLLAQGPSSGAPPPSK([Peg3-Peg3-γGlu-C20 diacid])-NH2 [Compound 4]	0.014 nM
B7	0.003 nM

Molecular target: human GLP-1 receptor (human, UniProt P43220 24-463)
Assay: cell-based or functional assay

Binder	EC50 hGLP1 R (cAMP, HEK293 cells expressing the GLP-1R)
H-Y[Aib]EGTFISDYSIELDKK([Peg3-Peg3-γGlu-C20 diacid])HQQDFVNWLLAQGPSSGAPPPS-NH2 [Compound 9]	> 3 nM
B4	> 3 nM
